Experimental data published in article PMC7725785, “TRIB3 promotes MYC-associated lymphoma development through suppression of UBE3B-mediated MYC degradation” (Nature Communications, 2020).
Values belong to the binder of their own block, whether it stands above or below them. Where no end group is shown, it is not given here. [ ]: non-standard residue; d: D form.

How the values were obtained:
[1] = target: T1, UBE3B (His-tagged), recombinant (human, UniProt Q7Z3V4 1-1068); experiment: co-IP; in vitro co-IP: purified His-tagged UBCH3 (5 μg) and His-tagged UBE3B (5 μg) with GST-tagged TRIB3 or the KD(C) domain; 1% NP-40, 120 mM NaCl, 40 mM tris-HCl pH 7.4, 6 h at 4 °C; conditions: both partners purified
T1 construct: recombinant UBE3B; also called purified UBE3B; source: Freestyle 293-F cells, transient transfection, purified (Ni-NTA, Superdex 200)
T1 sequence (looked up): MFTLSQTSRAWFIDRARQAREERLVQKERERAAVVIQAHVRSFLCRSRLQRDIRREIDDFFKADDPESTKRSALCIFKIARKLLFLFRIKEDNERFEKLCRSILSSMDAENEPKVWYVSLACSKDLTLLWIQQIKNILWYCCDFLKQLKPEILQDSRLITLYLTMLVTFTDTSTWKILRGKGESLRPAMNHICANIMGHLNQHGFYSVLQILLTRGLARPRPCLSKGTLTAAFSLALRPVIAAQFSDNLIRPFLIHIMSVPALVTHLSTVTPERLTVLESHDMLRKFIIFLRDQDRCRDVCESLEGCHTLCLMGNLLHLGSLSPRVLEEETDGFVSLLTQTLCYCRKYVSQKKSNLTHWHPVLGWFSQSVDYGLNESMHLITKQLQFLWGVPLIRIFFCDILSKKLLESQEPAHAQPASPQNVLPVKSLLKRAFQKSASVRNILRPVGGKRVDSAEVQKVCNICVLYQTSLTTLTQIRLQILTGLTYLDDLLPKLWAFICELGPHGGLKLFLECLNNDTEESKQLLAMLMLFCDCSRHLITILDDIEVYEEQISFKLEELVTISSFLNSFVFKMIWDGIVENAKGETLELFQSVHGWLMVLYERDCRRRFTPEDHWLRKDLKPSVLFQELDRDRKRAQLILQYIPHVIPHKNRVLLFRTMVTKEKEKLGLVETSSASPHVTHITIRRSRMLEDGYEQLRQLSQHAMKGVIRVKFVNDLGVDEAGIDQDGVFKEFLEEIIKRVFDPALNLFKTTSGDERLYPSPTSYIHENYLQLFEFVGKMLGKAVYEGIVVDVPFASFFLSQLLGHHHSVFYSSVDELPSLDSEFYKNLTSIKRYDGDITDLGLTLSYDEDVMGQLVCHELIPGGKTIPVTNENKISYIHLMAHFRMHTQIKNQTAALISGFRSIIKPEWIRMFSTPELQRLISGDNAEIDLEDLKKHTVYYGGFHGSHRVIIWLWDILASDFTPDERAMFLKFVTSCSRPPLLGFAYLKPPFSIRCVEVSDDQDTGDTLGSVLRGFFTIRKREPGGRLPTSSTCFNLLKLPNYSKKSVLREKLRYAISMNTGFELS

GST-tagged TRIB3 = target: T2, GST-tagged TRIB3 (human, UniProt Q96RU7 1-358); experiment: SPR; BIAcore T200; TRIB3 immobilised directly on a CM5 chip; 0–200 nM peptide passed over; HBS-EP pH 7.4, 25 °C, 25 μl/min; conditions: both partners purified
T2 construct: purified recombinant TRIB3; also called TRIB3-GST; TRIB3 protein; source: bought: Sinobiological (10731-H09B), purified
T2 sequence (looked up): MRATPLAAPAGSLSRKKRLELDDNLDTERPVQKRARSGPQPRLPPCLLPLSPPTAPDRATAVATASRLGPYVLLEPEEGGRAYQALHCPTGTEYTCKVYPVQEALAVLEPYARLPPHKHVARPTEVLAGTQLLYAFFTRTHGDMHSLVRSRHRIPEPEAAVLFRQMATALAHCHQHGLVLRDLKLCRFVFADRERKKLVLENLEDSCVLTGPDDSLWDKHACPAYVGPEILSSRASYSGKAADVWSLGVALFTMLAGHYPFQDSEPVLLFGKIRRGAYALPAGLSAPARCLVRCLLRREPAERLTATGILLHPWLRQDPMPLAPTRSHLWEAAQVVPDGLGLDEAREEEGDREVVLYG

binding result [1]: binds
B1: purified His-tagged UBCH3 (enzyme, UniProt P49427 1-236, looked up)
chain: MARPLVPSSQKALLLELKGLQEEPVEGFRVTLVDEGDLYNWEVAIFGPPNTYYEGGYFKARLKFPIDYPYSPPAFRFLTKMWHPNIYETGDVCISILHPPVDDPQSGELPSERWNPTQNVRTILLSVISLLNEPNTFSPANVDASVMYRKWKESKGKDREYTDIIRKQVLGTKVDAERDGVKVPTTLAEYCVKTKAPAPDEGSDLFYDDYYEDGEVEEEADSCFGDDEDDSGTEES
notes: UBCH3 (CDC34), purified; also called UBCH3 (E2); UHCH3

Kd (GST-tagged TRIB3): 0.0764 µM
B2: CM4 peptide (peptide)
peptide: [dK][dR][dR][dE][dQ][dL][dK][dH][dK][dL][dE][dQ][dL][dR]
notes: α-helical peptide derived from the C terminus of MYC; source: synthetic peptide (Chinese Peptide Inc., >98% purity)
